Data published in paper PMC8219681, “Inhibition of MRN activity by a telomere protein motif” (Nature Communications, 2021).

B1: Rad50 (S. cerevisiae, FLAG-tagged at the C terminus) [S. cerevisiae] / MBP-Rif2 (S. cerevisiae Rif2, wild type) [S. cerevisiae] (parent complex)
chain 1: MSAIYKLSIQGIRSFDSNDRETIEFGKPLTLIVGMNGSGKTTIIECLKYATTGDLPPNSKGGVFIHDPKITGEKDIRAQVKLAFTSANGLNMIVTRNIQLLMKKTTTTFKTLEGQLVAINNSGDRSTLSTRSLELDAQVPLYLGVPKAILEYVIFCHQEDSLWPLSEPSNLKKKFDEIFQAMKFTKALDNLKSIKKDMSVDIKLLKQSVEHLKLDKDRSKAMKLNIHQLQTKIDQYNEEVSEIESQLNEITEKSDKLFKSNQDFQKILSKVENLKNTKLSISDQVKRLSNSIDILDLSKPDLQNLLANFSKVLMDKNNQLRDLETDISSLKDRQSSLQSLSNSLIRRQGELEAGKETYEKNRNHLSSLKEAFQHKFQGLSNIENSDMAQVNHEMSQFKAFISQDLTDTIDQFAKDIQLKETNLSDLIKSITVDSQNLEYNKKDRSKLIHDSEELAEKLKSFKSLSTQDSLNHELENLKTYKEKLQSWESENIIPKLNQKIEEKNNEMIILENQIEKFQDRIMKTNQQADLYAKLGLIKKSINTKLDELQKITEKLQNDSRIRQVFPLTQEFQRADLEMDFQKLFINMQKNIAINNKKMHELDRRYTNALYNLNTIEKDLQDNQKSKEKVIQLLSENLPEDCTIDEYNDVLEETELSYKTALENLKMHQTTLEFNRKALEIAERDSCCYLCSRKFENESFKSKLLQELKTKTDANFEKTLKDTVQNEKEYLHSLRLLEKHIITLNSINEKIDNSQKCLEKAKEETKTSKSKLDELEVDSTKLKDEKELAESEIRPLIEKFTYLEKELKDLENSSKTISEELSIYNTSEDGIQTVDELRDQQRKMNDSLRELRKTISDLQMEKDEKVRENSRMINLIKEKELTVSEIESSLTQKQNIDDSIRSKRENINDIDSRVKELEARIISLKNKKDEAQSVLDKVKNERDIQVRNKQKTVADINRLIDRFQTIYNEVVDFEAKGFDELQTTIKELELNKAQMLELKEQLDLKSNEVNEEKRKLADSNNEEKNLKQNLELIELKSQLQHIESEISRLDVQNAEAERDKYQEESLRLRTRFEKLSSENAGKLGEMKQLQNQIDSLTHQLRTDYKDIEKNYHKEWVELQTRSFVTDDIDVYSKALDSAIMKYHGLKMQDINRIIDELWKRTYSGTDIDTIKIRSDEVSSTVKGKSYNYRVVMYKQDVELDMRGRCSAGQKVLASIIIRLALSETFGANCGVIALDEPTTNLDEENIESLAKSLHNIINMRRHQKNFQLIVITHDEKFLGHMNAAAFTDHFFKVKRDDRQKSQIEWVDINRVTY
chain 2: MEHVDSDFAPIRRSKKVVDSDKIVKAISDDLEQKNFTVLRKLNLVPIKKSVSSPKVCKPSPVKERVDHVFYQKFKSMALQELGTNYLSISYVPSLSKFLSKNLRSMKNCIVFFDKVEHIHQYAGIDRAVSETLSLVDINVVIIEMNDYLMKEGIQSSKSKECIESMGQASYSGQLDFEASEKPSNHTSDLMMMVMRKINNDESIDHIVYFKFEQLDKLSTSTIIEPSKLTEFINVLSVLEKSNNIAFKVLIYSNNVSISSLLSTSLKKKLNTKYTVFEMPILTCAQEQEYLKKMIKFTFDSGSKLLQSYNSLVTCQLNNKESNLAIFFEFLKVFPHPFTYLFNAYTEIIVQSRTFDELLDKIRNRLTIKNYPHSAYNFKKNQRLPLKLTRKVHDR

Variants of: B1
Test: pull-down (amylose-immobilized MBP-Rif2 bait, Western blot with anti-Rad50 antibody, quantified); three independent blots; mean with SEM; parent: 100; read off a plot

| percent of parent [Relative value] | Variant |
| --- | --- |
| ~16 | chain 1 K81I |
